Measured values from patent publication US11524046B2, “Biofilm prevention, disruption and treatment with bacteriophage lysin” (priority 2012, dated 2022).

Experiments:
[1] = system: methicillin resistant S. aureus MRSA strain ATCC BAA-42; assay: MIC by broth microdilution (CLSI M07-A9) against strain ATCC BAA-42; assay type: cell-based
[2] = system: Pseudomonas aeruginosa; conditions: Pseudomonas aeruginosa (5)
[3] = system: S. aureus strains; assay: PlySs2 and antibiotic MIC, broth microdilution, 80% growth inhibition (CLSI M07-A9); assay type: cell-based
[4] = system: Staphylococcus epidermidis; assay: MIC of PlySs2, susceptible and non-susceptible bacterial strains; assay type: cell-based; conditions: Staphylococcus epidermidis (11)
[5] = system: Bacillus cereus; conditions: Bacillus cereus (10)
[6] = system: Lactobacillus spp.; conditions: N 6
[7] = system: Enterococcus faecium; conditions: Enterococcus faecium (5)
[8] = system: Staphylcoccus aureus; assay: MIC of PlySs2, susceptible and non-susceptible bacterial strains; assay type: cell-based
[9] = system: MRSA strains CFS 553 (ATCC 43300) and CFS 992 (JMI 5381); assay: MIC of PlySs2 against additional MRSA strains; assay type: cell-based, S. aureus
[10] = system: Streptococcus pyogenes, Group A; assay: MIC of PlySs2, susceptible and non-susceptible bacterial strains; assay type: cell-based; conditions: Group A (54)
[11] = system: MRSA biofilms grown on catheters (strain ATCC BAA-42); assay: Catheter biofilm eradication in vitro, methylene blue staining
[12] = system: Enterococcus faecalis; conditions: Enterococcus faecalis (17)

B1: PlySs2: bacteriophage lysin derived from Streptococcus suis, amino acid sequence of FIG. 5 / SEQ ID NO: 1; CHAP and SH3 domains (protein, listed as Streptococcus suis)
chain: MTTVNEALNNVRAQVGSGVSVGNGECYALASWYERMISPDATVGLGAGVGWVSGAIGDTISAKNIGSSYNWQANGWTVSTSGPFKAGQIVTLGATPGNPYGHVVIVEAVDGDRLTILEQNYGGKRYPVRNYYSAASYRQQVVHYITPPGTVAQSAPNLAGSRSYRETGTMTVTVDALNVRRAPNTSGEIVAVYKRGESFDYDTVIIDVNGYVWVSYIGGSGKRNYVATGATKDGKRFGNAWGTFK
MIC value ([1]; ATCC BAA-42, in the absence of reducing agent): 32 µg/mL | Minimally inhibitory concentration (MIC) ([1]; ATCC BAA-42, in the presence of reducing agent (such as DTT or BMS)): 16 µg/mL | MIC 50% [2]: >512 µg/mL | MIC 90% [2]: >512 µg/mL | MIC Range [2]: >512 µg/mL | MIC90 ([3]; DRSA (n = 8)): 0.15 µM | MIC90 ([3]; LRSA (n = 5)): 0.08 µM | MIC90 ([3]; MRSA (n = 45)): 0.15 µM | MIC90 ([3]; MSSA (n-28)): 0.15 µM | MIC90 ([3]; VISA (n = 10)): 1.2 µM | MIC90 ([3]; VRSA (n = 14)): 0.08 µM | MIC 50% [4]: 128 µg/mL | MIC 90% [4]: 512 µg/mL | MIC Range [4]: 4 to 512 µg/mL | MIC 50% [5]: >512 µg/mL | MIC 90% [5]: >512 µg/mL | MIC Range [5]: >512 µg/mL | CF-301 MIC [6]: >512 µg/mL | MIC 50% [7]: >512 µg/mL | MIC 90% [7]: >512 µg/mL | MIC 50% ([8]; Methicillin resistant (120)): 4 µg/mL | MIC 90% ([8]; Methicillin resistant (120)): 8 µg/mL | MIC Range ([8]; Methicillin resistant (120)): 1 to 16 µg/mL | MIC 50% ([8]; Methicillin susceptible (103)): 4 µg/mL | MIC 90% ([8]; Methicillin susceptible (103)): 8 µg/mL | MIC Range ([8]; Methicillin susceptible (103)): 1 to 16 µg/mL | 1×MIC ([9]; strain ATCC 4330): 16 µg/mL | 1×MIC ([9]; strain JMI 5381): 32 µg/mL | MIC 50% [10]: 2 µg/mL | MIC 90% [10]: 8 µg/mL | MIC Range [10]: 0.5 to 8 µg/mL | time of full removal of stainable biofilm ([11]; 1×MIC (32 ug/mL)): ≤ 60 min | biofilm clearance from the catheter ([11]; 1×MIC, 24 hours): completely cleared | MIC 50% [12]: >512 µg/mL | MIC 90% [12]: >512 µg/mL
